A short description of data set [1]: cell-based 65Zn uptake, HEK293T. As to conditions: glycan lost; control: wild type.
Data set [2] is described as follows: confocal immunofluorescence, FITC anti-HA, nonpermeabilized cells. The following applies: glycan lost; control: wild type.
Data set [3] concerns the molecule itself. Put plainly: SEC; Superdex 200 10/300GL, 10 mM HEPES pH 7.3, 100 mM NaCl; apparent molecular weight estimated from protein standards; native purified protein.

Numbering of substitutions follows the chain as printed. Numbers in names are those of the source.

B1: hZIP4 (human ZIP4): N261Q (protein)
parent chain: MASLVSLELGLLLAVLVVTATASPPAGLLSLLTSGQGALDQEALGGLLNTLADRVHCANGPCGKCLSVEDALGLGEPEGSGLPPGPVLEARYVARLSAAAVLYLSNPEGTCEDARAGLWASHADHLLALLESPKALTPGLSWLLQRMQARAAGQTPKMACVDIPQLLEEAVGAGAPGSAGGVLAALLDHVRSGSCFHALPSPQYFVDFVFQQHSSEVPMTLAELSALMQRLGVGREAHSDHSHRHRGASSRDPVPLISSSNSSSVWDTVCLSARDVMAAYGLSEQAGVTPEAWAQLSPALLQQQLSGACTSQSRPPVQDQLSQSERYLYGSLATLLICLCAVFGLLLLTCTGCRGVTHYILQTFLSLAVGAVTGDAVLHLTPKVLGLHTHSEEGLSPQPTWRLLAMLAGLYAFFLFENLFNLLLPRDPEDLEDGPCGHSSHSHGGHSHGVSLQLAPSELRQPKPPHEGSRADLVAEESPELLNPEPRRLSPELRLLPYMITLGDAVHNFADGLAVGAAFASSWKTGLATSLAVFCHELPHELGDFAALLHAGLSVRQALLLNLASALTAFAGLYVALAVGVSEESEAWILAVATGLFLYVALCDMLPAMLKVRDPRPWLLFLLHNVGLLGGWTVLLLLSLYEDDITF
For the protein B1, the “other: transport activity” value in data set [1] is “decreases”. Moreover, the localisation_or_trafficking result in data set [2] is on record as “no change”.

B2: extracellular domain of ZIP4 from Pteropus alecto (black fruit bat), wild type (domain or fragment, UniProt L5KLU7 36-322, looked up)
chain: SGQGALDRVALGGLLNTLAARVHCTSGPCGKCLSVDDLLALGRPEEPGHLARLSAAAALYLSDPEGTCEDIRAGRWASRADHLLALLEGPKALAPGLSRLLQRIQAQTTGQPSAGEACVDPPQLLREAGVAGAPGSPGPVLATLLEHVGRGSCFHTLPTPQYFVDFVFQQSHGNTPNISVAELAALMQRLGVGGVTETHSDHHHQEKRVNRQGPTPLTAPNSSSDTWDTVCLSARDVMAVYGLSEQTGVTPEAWAQLSPALLQQQLSGACSPQPSHPAQNQLSQAEK
notes: ZIP4 (zinc transporter, SLC39A family) of Pteropus alecto, extracellular domain, residues 36-322 of ELK11751; His6 tag removed by thrombin; also called pZIP4-ECD; wild-type pZIP4-ECD; source: E. coli Origami B(DE3) pLysS, purified (Ni-NTA, Mono-Q, SEC); not shown: His6, N-terminal, cleaved
With B2, the “stoichiometry N” value in data set [3] was 2.

B3: pZIP4-ECD P193L variant (domain or fragment, Pteropus alecto, UniProt L5KLU7 36-322, looked up)
chain: B2 chain with P158L
notes: ZIP4 of Pteropus alecto, extracellular domain, residues 36-322 of ELK11751, with P193L (equivalent to P200L of human ZIP4); source: E. coli Origami B(DE3) pLysS, purified (Ni-NTA, Mono-Q, SEC); not shown: His6, N-terminal, cleaved
In the case of B3, in data set [3], the binding result was “binds”.

B4: pZIP4-ECD R87C variant (domain or fragment, Pteropus alecto, UniProt L5KLU7 36-322, looked up)
chain: B2 chain with R52C
notes: ZIP4 of Pteropus alecto, extracellular domain, residues 36-322 of ELK11751, with R87C (equivalent to R95C of human ZIP4); source: E. coli Origami B(DE3) pLysS, purified (Ni-NTA, Mono-Q, SEC); not shown: His6, N-terminal, cleaved
Turning to B4, the binding result in data set [3] is recorded as “binds”.

B5: pZIP4-ECD C64R variant (domain or fragment, Pteropus alecto, UniProt L5KLU7 36-322, looked up)
chain: B2 chain with C29R
notes: ZIP4 of Pteropus alecto, extracellular domain, residues 36-322 of ELK11751, with C64R (equivalent to C62R of human ZIP4); source: E. coli Origami B(DE3) pLysS, purified (Ni-NTA, Mono-Q, SEC); not shown: His6, N-terminal, cleaved
In the case of B5, in data set [3], the binding result is “binds”.

B6: pZIP4-ECD A91T variant (domain or fragment, Pteropus alecto, UniProt L5KLU7 36-322, looked up)
chain: B2 chain with A56T
notes: ZIP4 of Pteropus alecto, extracellular domain, residues 36-322 of ELK11751, with A91T (equivalent to A99T of human ZIP4); source: E. coli Origami B(DE3) pLysS, purified (Ni-NTA, Mono-Q, SEC); not shown: His6, N-terminal, cleaved
For B6, in data set [3], the binding result is given as “binds”.

Broadly, the stoichiometry N is the number of molecules, sites or subunits per partner or assembly.
